{"source": "paper PMC9555238", "about": "“Interaction of BES1 and LBD37 transcription factors modulates brassinosteroid-regulated root forging response under low nitrogen in arabidopsis”", "biological_target": "T1, LBD37 (Arabidopsis thaliana, UniProt Q9FN11 1-250)", "T1 sequence": "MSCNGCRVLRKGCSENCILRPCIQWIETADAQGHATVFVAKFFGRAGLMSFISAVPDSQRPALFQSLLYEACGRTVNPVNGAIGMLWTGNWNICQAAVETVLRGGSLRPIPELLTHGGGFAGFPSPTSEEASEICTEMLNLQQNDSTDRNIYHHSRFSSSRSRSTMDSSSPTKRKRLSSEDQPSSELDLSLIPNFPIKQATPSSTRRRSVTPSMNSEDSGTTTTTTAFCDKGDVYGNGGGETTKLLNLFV", "test": "EMSA; 5 mM HEPES-KOH pH 8.0, 50 mM KCl, 1 mM DTT, 10% glycerol, 20 uL, on ice 60 min; 5% native PAGE in TBE", "settings": "protein: recombinant; tags: MBP (N-terminal, pMAL-c2X); (LightShift chemiluminescent kit)", "data": [{"binder": "NRT2.1 promoter probe, mutated LOB motif (dsDNA) DNA 1: AGACTAGGAAGATGCTTGAAAAGAAAATGGATTCCTCGAAA DNA 2: TTTCGAGGAATCCATTTTCTTTTCAAGCATCTTCCTAGTCT", "values": [{"measurement": "binding result", "value": "no binding"}]}]}
